The data set has as its system MS2 coat protein. Kind of data set: apparent KD of MS2 coat protein; designed switch direction (-1 OFF switch, 1 ON switch): 1; higher = weaker reporter binding. The method in brief: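 Transcription of designed RNA switches on Illumina chips was done by stalled E. coli RNA polymerase. SNAP-549-labelled MS2 coat protein was then titrated in doubling steps from 0.7 or 1.5 nM to 3 µM, with steps of 0.8–1.5 h at the lowest and 10–20 min at the highest concentration. The per-design median over clusters of curve-fitted normalised fluorescence is reported as apparent KD.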

Where [1] appears, read: input ligand: microRNA oligo, concentration not stated.
Where [2] appears, read: Eterna round: R95, input ligand: FMN 200 uM.
The mark [3] stands for this setting: Eterna round: R95, input ligand: microRNA oligo, concentration not stated.
Where [4] appears, read: Eterna round: R95, input ligand: none.

For the sequence “UGGUACAUGGGAGGAUAUGGGUUGAUGACAUGAGGAUCACCCAUGUUAAAUAUGCCGAGAGGCAACUAGAAGGCCCAUGUACCU [JL SSNG1 3.99] (Eterna round: R96, puzzle: Same State NG 2)”, the “apparent KD of MS2 coat protein” value runs as follows: (input ligand: FMN 200 uM) 62.7 nM; under setting [1], 1320 nM; (input ligand: none) 1080 nM.
The matching figures for “UGGCUCAGACUAGGAUAUAUGCGAUCACAUGAGGAUCACCCAUGUCUCGAGCUUCGGCUCGAGGCAUAGAAGGAGUCUGAGCCA [SSNG2/4-D2] (Eterna round: R96, puzzle: Same State NG 2)”: 14.4 nM, 34.6 nM and 56.5 nM.
For the sequence “UUGAUGAACUGAGGAUAUCGAGUCGUCUGAUUAUACAUGAGGAUCACCCAUGUGGGUUGUGGUAUCGAGAAGGCAGAUUACUUA [JR_SSNG2_Sub032] (Eterna round: R96, puzzle: Same State NG 2)”, the “apparent KD of MS2 coat protein” value is, setting by setting: (input ligand: FMN 200 uM) 82.8 nM; under setting [1], 117 nM; (input ligand: none) 260 nM.
“GUGGAGGAUUAAGGAUAUUGAAUACAUAUGUUUAACAUGAGGAUCACCCAUGUGGGUUGCGGUAUCGAGAAGGUAAAUUACUGG [salish99_SSNG2_r04_034] (Eterna round: R96, puzzle: Same State NG 2)”: the “apparent KD of MS2 coat protein” value amounted to 146 nM (input ligand: FMN 200 uM), 63.2 nM under setting [1] and 117 nM (input ligand: none).
As for “UAUCGUUUGAUAGGAUAUCGCUAUACAUGAGGAUCACCCAUGUUUACCACGCUGGUUUUUCAUACCGAGAAGGAUUCUGAUGAA [salish99_SSNG02_r04_004] (Eterna round: R96, puzzle: Same State NG 2)”, the “apparent KD of MS2 coat protein” value (input ligand: FMN 200 uM) turned out to be 29 nM, the “apparent KD of MS2 coat protein” value under setting [1] was 19.6 nM and the “apparent KD of MS2 coat protein” value (input ligand: none) was determined as 32.5 nM.
The like results for “GGCGAAUAAACAUGAGGAUCACCCAUGUAGCGGAGACGCAAUGAGGAUAUCGAUGGGUUUCCCGUCGAGAAGGCAUGGGUCGCC [JL SSNG3 3.93 mod 1] (Eterna round: R96, puzzle: Same State NG 3)” were, in that order, 20.8 nM, 99.6 nM and 140 nM.
The matching figures for “CGCAACGGCUGAGGAUAUGUCAACACGGGACGGGCAGAAGGUAGCAACCACCCACAUGAGGAUCACCCAUGUAUCCAAAUUCAC [Eternabot solution 38] (Eterna round: R96, puzzle: Same State NG 1)”: 48.9 nM, 41.5 nM and 42.3 nM.
On to “GUAAUACAUGAGGAUCACCCAUGUCAAUGUAGUCGAGGAUAUGGGUAGCUAUGUGGCUUACUAGAAGGCGACGAGC [Same State 1 - Mod of Vinnie Teenbexe v.4] (puzzle: Same State 1)”, for which the “apparent KD of MS2 coat protein” value amounted to 90.3 nM under setting [2], 157 nM under setting [3] and 251 nM under setting [4].
Consider “AUAACAAUGGCAGGAUAUGGGAUUGGAAGUGUUCCAGAAGGGCCAUAACGGCGAUGGACAUGAGGAUCACCCAUGUCUUAGCCU [MOD2 Powerstrip SSNG 1.4] (Eterna round: R96, puzzle: Same State NG 1)”, for which the “apparent KD of MS2 coat protein” value (input ligand: FMN 200 uM) was 14.3 nM, the “apparent KD of MS2 coat protein” value under setting [1] came to 6.26 nM and the “apparent KD of MS2 coat protein” value (input ligand: none) turned out to be 15 nM.
“AGUCCAGCCUGAGCUGGACAAAAGCAUGUACAUGAGGAUCACCCAUGUUCAUGUACAAGCUUUUUGCUCGUCGUAAU [Mat - hsa-mir-208a - Mod of JL - 48] (puzzle: Sensor for hsa-mir-208a)”: the “apparent KD of MS2 coat protein” value by setting is: under setting [2], 501 nM; under setting [3], 16.7 nM; under setting [4], 611 nM.
As for “UUAAUGAUGUAAGGAUAUACAUGAGGAUUUCUCGUAGAAGGUACAAGACAUGAGGAUCACCCAUGUAUCGCUCCGUAGAGCGUA [JL SSNG1 1.10] (Eterna round: R96, puzzle: Same State NG 1)”, the “apparent KD of MS2 coat protein” value is, setting by setting: (input ligand: FMN 200 uM) 652 nM; under setting [1], 101 nM; (input ligand: none) 287 nM.
With “UUUAGAUUCAGAGGAUAUUGAUGUUGUAUUUUACAAGAAGGCUGAUUGGUUUGAAUUGUUUUUUAACAUGAGGAUCACCCAUGU [JR_SSNG1_Sub011] (Eterna round: R96, puzzle: Same State NG 1)”, under setting [1], the “apparent KD of MS2 coat protein” value turned out to be 19.2 nM.
As for “AGCCUGAGUCGAGGAUAUUAUGGAUCCUUUAAUACAUGAGGAUCACCCAUGUAAUUAAUUAUACAUGAGAAGGCGACUCAGGCA [SSNG2/11-A1] (Eterna round: R96, puzzle: Same State NG 2)”, the “apparent KD of MS2 coat protein” value (input ligand: FMN 200 uM) worked out at 10.9 nM, the “apparent KD of MS2 coat protein” value under setting [1] came out at 30.4 nM and the “apparent KD of MS2 coat protein” value (input ligand: none) amounted to 129 nM.
On to “ACAUGAGAGUGAGGAUAUAUUGUACCUACAUGUGACAUGAGGAUCACCCAUGUGGUAAGUAUGACAUAGAAGGCACAGAUAUGU [Equivalance 80 - Jieux - Same State NG 2] (Eterna round: R96, puzzle: Same State NG 2)”, for which the “apparent KD of MS2 coat protein” value reads like this: (input ligand: FMN 200 uM) 35.6 nM; under setting [1], 45.2 nM; (input ligand: none) 70.9 nM.
The like results for “UUUGAAUUGCAAGGAUAUUGAUAACAUGAGGAUCACCCAUGUAAUUGUUCGAGUUAGAUUAGUUACAAGAAGGUGCUAUUGUUU [JR_SSNG2_Sub039] (Eterna round: R96, puzzle: Same State NG 2)” were, in that order, 385 nM, 165 nM and 287 nM.
Turning to “GCUCGAUGAGCGUUCUACAUGAGGAUCACCCAUGUUCGUGGGCAGGAUAUUUACAUGCAGAGUGUAGAGAAGGGCCCAUCGAGC [SameState NG3 #66] (Eterna round: R96, puzzle: Same State NG 3)”, the “apparent KD of MS2 coat protein” value runs as follows: (input ligand: FMN 200 uM) 205 nM; under setting [1], 117 nM; (input ligand: none) 838 nM.
With “UGAAUACAUGAGGAUCACCCAUGUCAACGUAGUCGAGGAUAUGGGCAGCCGUGAGGCGUACUAGAAGGCGAAGAGG [JL-ss1-3.07 ViennaUCT mod] (puzzle: Same State 1)”, the “apparent KD of MS2 coat protein” value under setting [2] worked out at 131 nM, the “apparent KD of MS2 coat protein” value under setting [3] is 89.9 nM and the “apparent KD of MS2 coat protein” value under setting [4] stood at 175 nM.
“AGUCCAGCCUGAGCUGGACAAAAGCAUGUACAUGAGGAUCACCCAUGUUCAUGUACAAGCUUUUUGCUCGUCUUUAA [salish99_208a_r3_096x] (Eterna round: R96, puzzle: Sensor for hsa-mir-208a)”: the “apparent KD of MS2 coat protein” value is 559 nM (input ligand: FMN 200 uM), 14.5 nM under setting [1] and 577 nM (input ligand: none).
“AGUGGAGCCUGAGCUCCACAAAAGCAUGUACAUGAGGAUCACCCAUGUCAUGUACAAGCUUUUUGCUCGUCUUAAAA [Mat - hsa-mir-208a - Mod of JL - D18] (puzzle: Sensor for hsa-mir-208a)”: the “apparent KD of MS2 coat protein” value is, setting by setting: under setting [2], 536 nM; under setting [3], 18.8 nM; under setting [4], 423 nM.
In the case of “UGUUGUAUUACAGGAUAUCUAUGAUUUUUGUUUAGAGAAGGGUAUUCACAUGAGGAUCACCCAUGUAUAUACGAGGAAGUUGUG [JMF's solution 66] (Eterna round: R96, puzzle: Same State NG 1)”, the “apparent KD of MS2 coat protein” value under setting [1] is 42.4 nM.

Source of the values: the supplement of paper PMC9170038.
